The target in one assay is T1, PR20: H-(PR)20HHHHHH-NH2 (C-terminal amide).
T1 peptide: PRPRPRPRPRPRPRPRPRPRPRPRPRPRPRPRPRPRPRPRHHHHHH
The experiment in a line: indirect ELISA, coated His-tagged peptide. The essentials: (§1)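 Antibodies at graded concentrations bound for 1 h at room temperature to wells carrying 50 μg/ml His-tagged repeat peptide (pH 9.42 carbonate coating, 2% BSA block). Bound IgG read colorimetrically via HRP anti-human Fcγ; EC₅₀ estimated by non-linear regression.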
On the technique in general: In an ELISA, binding on a coated surface is turned into a signal by an enzyme label.

Another assay addresses T2, PR6: H-(PR)6HHHHHH-NH2.
T2 peptide: H-PRPRPRPRPRPRHHHHHH-NH2
Briefly: indirect ELISA, coated His-tagged peptide. The method in brief:
as §1

Assay [1] has as its target T3, BSA-coupled (GA)15 DPR protein peptide (bovine, conjugated via a bifunctional linker (SMCC) to bovine serum albumin).
T3 construct: also called BSA-(GA)15
The experiment in a line: indirect ELISA, BSA-coupled peptide coated, antibody titrated [also D00013 FIG. 3E]. How it is done: In brief, dipeptide repeat proteins were synthesized and purified by Schafer-N(Copenhagen, Denmark): (GA)₁₅: H-CHHHHHH(GA)₁₅-OH; (GP)₁₅: H-C(GP)₁₅-OH; (GR)₁₅: H-C(GR)₁₅-OH; (PA)₁₅: H-C(PA)₁₅-OH; (PR)₁₅: H—C(PR)₁₅-OH. DPR protein peptides were then conjugated via a bifunctional linker (SMCC) to bovine serum albumin (BSA). 96-well microplates (Corning Incorporated, Corning, USA) were coated with BSA-coupled or -uncoupled dipeptide repeat protein peptides at a concentration of either 5 μg/ml or 20 μg/ml in coating buffer (15 mM Na₂CO₃, 35 mM NaHCO₃, pH 9.42). Non-specific binding sites were blocked for 1 h at room temperature with PBS/0.1% Tween®-20 containing 2% BSA (Sigma-Aldrich, Buchs, Switzerland). Primary antibodies were diluted to the indicated concentrations and incubated 1 h at room temperature, followed by incubation with a donkey anti-human IgG Fcγ-specific antibody conjugated with HRP (Jackson ImmunoResearch Laboratories, Inc., West Grove, USA). Binding was determined by measurement of HRP activity in a standard colorimetric assay. EC₅₀ values were estimated by non-linear regression using GraphPad Prism software (San Diego, USA).

The next assay concerns the target T4, GR4: H-(GR)4HHHHHH-NH2.
T4 peptide: H-GRGRGRGRHHHHHH-NH2
The experiment in a line: indirect ELISA, coated His-tagged peptide. The method in brief:
as §1

The target of a further assay is T5, GR3: H-(GR)3HHHHHH-NH2.
T5 peptide: H-GRGRGRHHHHHH-NH2
The experiment in a line: indirect ELISA, coated His-tagged peptide. The method in brief:
as §1

In a further assay the target is T6, GR10: H-(GR)10HHHHHH-NH2 (C-terminal amide).
T6 peptide: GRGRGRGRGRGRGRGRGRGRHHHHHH
Briefly: indirect ELISA, coated His-tagged peptide. The method in brief:
as §1

The next assay deals with T7, PA5: H-(PA)5HHHHHH-NH2.
T7 peptide: H-PAPAPAPAPAHHHHHH-NH2
Briefly: indirect ELISA, coated His-tagged peptide. The method in brief:
as §1

A further assay concerns the target T8, PA10: H-(PA)10HHHHHH-NH2 (C-terminal amide).
T8 peptide: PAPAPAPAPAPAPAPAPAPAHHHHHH
Briefly: indirect ELISA, coated His-tagged peptide. The method in brief: as §1

A further assay addresses T9, GA4: H-(GA)4HHHHHH-NH2.
T9 peptide: H-GAGAGAGAHHHHHH-NH2
Briefly: indirect ELISA, His-tagged peptide coated at 50 ug/ml, antibody titrated [also D00025 FIG. 7G]. An excerpt: (§2) In brief, dipeptide repeat proteins were synthesized and purified by Schafer-N (Copenhagen, Denmark): GA₂₀: H-(GA)₂₀HHHHHH-NH₂; GA₁₀: H-(GA)₁₀HHHHHH-NH₂; GA₆: H-(GA)₆HHHHHH-NH₂; GA₅: H-(GA)₅HHHHHH-NH₂; GA₄: H-(GA)₄HHHHHH-NH₂; GA₃: H-(GA)₃HHHHHH-NH₂; GA₂: H-(GA)₂HHHHHH-NH₂; GP₂₀: H-(GP)₂₀HHHHHH-NH₂; GP₁₀: H-(GP)₁₀HHHHHH-NH₂; GP₆: H-(GP)₆HHHHHH-NH₂; GP₅: H-(GP)₅HHHHHH-NH₂; GP₄: H-(GP)₄HHHHHH-NH₂; GP₃: H-(GP)₃HHHHHH-NH₂; GP₂: H-(GP)₂HHHHHH-NH₂. GR₂₀: H-(GR)₂₀HHHHHH-NH₂; GR₁₀: H-(GR)₁₀HHHHHH-NH₂; GR₆: H-(GR)₆HHHHHH-NH₂; GR₅: H-(GR)₅HHHHHH-NH₂; GR₄: H-(GR)₄HHHHHH-NH₂; GR₃: H-(GR)₃HHHHHH-NH₂; GR₂: H-(GR)₂HHHHHH-NH₂; PA₂₀: H-(PA)₂₀HHHHHH-NH₂; PA₁₀: H-(PA)₁₀HHHHHH-NH₂; PA₆: H-(PA)₆HHHHHH-NH₂; PA₅: H-(PA)₅HHHHHH-NH₂; PA₄: H-(PA)₄HHHHHH-NH₂; PA₃: H-(PA)₃HHHHHH-NH₂; PA₂: H-(PA)₂HHHHHH-NH₂; PR₂₀: H-(PR)₂₀HHHHHH-NH₂; PR₁₀: H-(PR)₁₀HHHHHH-NH₂; PR₆: H-(PR)₆HHHHHH-NH₂; PR₅: H-(PR)₅HHHHHH-NH₂; PR₄: H-(PR)₄HHHHHH-NH₂; PR₃: H-(PR)₃HHHHHH-NH₂; PR₂: H-(PR)₂HHHHHH-NH₂. 96-well microplates (Corning Incorporated, Corning, USA) were coated with dipeptide repeat protein peptides at a concentration of 50 μg/ml in coating buffer (15 mM Na₂CO₃, 35 mM NaHCO₃, pH 9.42). Non-specific binding sites were blocked for 1 h at room temperature with PBS/0.1% Tween®-20 containing 2% BSA (Sigma-Aldrich, Buchs, Switzerland). Primary antibodies were diluted to the indicated concentrations and incubated 1 h at room temperature, followed by incubation with a donkey anti-human IgG Fcγ-specific antibody conjugated with HRP (Jackson ImmunoResearch Laboratories, Inc., West Grove, USA). Binding was determined by measurement of HRP activity in a standard colorimetric assay. EC₅₀ values were estimated by non-linear regression using GraphPad Prism software (San Diego, USA).

For another assay, the target named is T10, GA3: H-(GA)3HHHHHH-NH2.
T10 peptide: H-GAGAGAHHHHHH-NH2
The assay is described as above.
Excerpt: as §2

A further assay deals with T11, GA5: H-(GA)5HHHHHH-NH2.
T11 peptide: H-GAGAGAGAGAHHHHHH-NH2
The description is as above.
Excerpt: as §2

Another assay addresses T12, GA2: H-(GA)2HHHHHH-NH2.
T12 peptide: H-GAGAHHHHHH-NH2
Described as above.
Excerpt: as §2

A further assay deals with T13, GP10: H-(GP)10HHHHHH-NH2 (C-terminal amide).
T13 peptide: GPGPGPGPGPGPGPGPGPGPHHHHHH
The experiment in a line: indirect ELISA, coated His-tagged peptide. The essentials: as §1

T3 sequence (P02769 25-607 limits assumed): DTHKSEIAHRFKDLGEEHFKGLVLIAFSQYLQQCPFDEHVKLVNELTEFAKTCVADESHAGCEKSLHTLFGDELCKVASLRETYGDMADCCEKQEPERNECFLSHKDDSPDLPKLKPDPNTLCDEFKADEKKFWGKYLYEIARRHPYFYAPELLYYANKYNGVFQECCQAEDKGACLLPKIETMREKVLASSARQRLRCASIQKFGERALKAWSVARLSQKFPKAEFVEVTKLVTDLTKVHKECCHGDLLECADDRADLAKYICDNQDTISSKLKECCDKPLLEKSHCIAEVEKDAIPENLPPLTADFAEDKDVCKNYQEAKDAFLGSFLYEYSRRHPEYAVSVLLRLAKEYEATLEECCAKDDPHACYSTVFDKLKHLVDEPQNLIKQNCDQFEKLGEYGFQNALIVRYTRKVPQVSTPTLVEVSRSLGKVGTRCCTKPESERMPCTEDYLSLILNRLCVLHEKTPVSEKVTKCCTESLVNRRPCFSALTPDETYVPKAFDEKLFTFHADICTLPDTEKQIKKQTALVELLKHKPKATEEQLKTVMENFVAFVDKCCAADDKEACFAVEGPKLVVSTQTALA

B1: NI-308.24E11 (antibody, V domains shown)
VH: QVQLQESGPGLVKPSETLSLTCTVSTTSLRSYFWSWIRQPPGKGLEWIGYVYYSGSTIYNPSLKNRVTISIDTSKNQFSLNLRSVTAADTAMYFCARGVPAETDARDFPPYYFDHWGQGTLVTVSS
VL: CDIQLTQSPSSLSASVGNRITFTCQASQDIRYYLNWYQQKPGKAPKLLIYDVSNLDTGVPPRFSGSGSGTNFTFTISSLQPEDIAVYYCQQYEGLPVTFGGGTKVEIK
notes: Recombinant complete human IgG1, kappa
Take B1: the EC50 (commonly the concentration giving half of the maximal effect) with PR20: H-(PR)20HHHHHH-NH2 was 11.3 nM; in the assay with PR6: H-(PR)6HHHHHH-NH2, greater than 200 nM.

B2: NI-308.45C2 (antibody, V domains shown)
VH: QLQLQESGPGLVKPSQILSLTCAISGDSVFSNSAAWNWIRQSPSRGLEWLGRTYYRSKWDNDYAPSVKSRISINPDTSKNQFSLQLNSVTPEDTAVYYCAREVAYCGGDCYSVSFDYWGQGTLVTVSS
VL: not shown
notes: as for B1
The molecule B2 registered a 50% effective concentration (EC50) in [1] of 15.2 nM.

B3: NI-308.6B11 (antibody, V domains shown)
VH: EVQLVQSGAEVKRPGASVKVSCKVSGYTLTELSMHWVRQAPGKGLEWMGGFDPEDGETVYAQKFQGRVTMTEDTSTDTAYMELSSLRSEDTALYHCATYGSSWHWNEGNEGSYYFDYWGQGTLVTVSS
VL: CDIQMTQSPSSLSASVGDRVTITCQASQDISIYLNWYQQKPGKAPKLLIYDASNLETGVPSRFSGSGSGTDFTFTISGLQPEDVARYYCQQYDDLPITFGQGTRLEIK
notes: as for B1
On to B3, for which the results for the EC50 with GR4: H-(GR)4HHHHHH-NH2, with GR3: H-(GR)3HHHHHH-NH2 and with GR10: H-(GR)10HHHHHH-NH2 were 13.2 nM, 14.3 nM and 1.3 nM, respectively.

B4: NI-308.4M1 (antibody, V domains shown)
VH: EVQLVETGGGVVQPGGSLRLSCEASGFTIGTYAMHWVRQFPGKGLDWVAVISFDGTTEYYTDAVKGRFTISRDNAKNTLYLQMNYLRGDDTAIYFCARDFTSSGETGSWTQVPDLWGQGTLVTVSS
VL: CEIVMTQSPATLSLSPGERATLSCRASQSVTKYLAWYQQKPGQAPRLLIYDVSYRAAGTPARFSGSGSGTDFTLTISSLEPEDFAVYYCHQRSSWPPVTFGGGTKVEIK
notes: as for B1
B4: the concentration giving a half-maximal response (EC50) was 26.9 nM in the assay with PA5: H-(PA)5HHHHHH-NH2 and 0.06 nM with PA10: H-(PA)10HHHHHH-NH2.

B5: NI-308.18F7 (antibody, V domains shown)
VH: QVQLQESGPGLVKPSETLSVTCTVSGGSINDYYWNWIRQPAGKGLEWIGRIYASGTINYNPSLQSRVTMSIDTSKNQFSLDLISVSAADTAVYYCARWGQVVGDYYYGMDVWGQGTTVTVSS
VL: EIVLTQSPLSLSVTPGEPASISCKSSQSLQHTNGYNYLDWYLLKPGQSPQLLIFLTSNRASGVPDRFSGSGSGTNFTLKISRVEAEDVGVYYCMEGIQLWTFGQGTKLEIK
notes: as for B1
B5: the binding result with GA4: H-(GA)4HHHHHH-NH2, with GA3: H-(GA)3HHHHHH-NH2, with GA5: H-(GA)5HHHHHH-NH2 and in the assay with GA2: H-(GA)2HHHHHH-NH2 was “no binding (tested: about 4x10^5 pM (last point))” in each case.

B6: NI-308.46E9 (antibody, V domains shown)
VH: QVQLQESGPGLVKPSETLSLTCTVSGASISGSTYYWGWIRQPPGKGLEYIGRIYYSGSTYYNPSLKSRATISVDTSKNQLSLTLSSVTAADTAVYYCVRPFYAGSGNSPFDYWGQGTLVTVSS
VL: CEIVLTQSPATVSVSPGERATLSCRASQSVSTNLAWYQQKPGQPPRLLIYGASTRATGIPARFSGSGSGAEFTLTISSLQSEDFVVYYCQQYNNWPPAFGGGTKVEIK
notes: as for B1
Molecule B6 yielded an EC50 with GP10: H-(GP)10HHHHHH-NH2 of 63.3 nM.

The values above are taken from patent US20200010567A1 (NEURIMMUNE, published 2020).
